This note sets out measurements from paper PMC4551902, “Aquaporins Mediate Silicon Transport in Humans” (PLoS ONE, 2015).

The target of one data set is T1, lsi1 (Oryza sativa, UniProt Q6Z2T3).
T1 construct: gene NIP2-1; expressed in Xenopus laevis oocytes
T1 sequence (Q6Z2T3 1-298): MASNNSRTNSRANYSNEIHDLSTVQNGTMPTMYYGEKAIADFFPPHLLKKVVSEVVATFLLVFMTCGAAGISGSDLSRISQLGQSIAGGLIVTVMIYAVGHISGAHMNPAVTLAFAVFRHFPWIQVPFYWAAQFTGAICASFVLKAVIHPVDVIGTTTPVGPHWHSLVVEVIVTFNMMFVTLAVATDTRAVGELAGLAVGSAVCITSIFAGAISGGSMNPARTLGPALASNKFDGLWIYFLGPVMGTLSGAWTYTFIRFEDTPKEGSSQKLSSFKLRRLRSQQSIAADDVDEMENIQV
The experiment in a line: 68Ge influx into oocytes, liquid scintillation counting. Particulars: 2 mM H4GeO4 with 68Ge tracer, B1 medium, pH 7.4, 90 min; labelled compound. The data set is classed as cell-based.

For a further data set, the target named is T2, AQP9 (Homo sapiens, UniProt O43315).
T2 construct: full-length human cDNA in Pol1 vector, untagged, expressed in Xenopus laevis oocytes
T2 sequence (O43315 1-295): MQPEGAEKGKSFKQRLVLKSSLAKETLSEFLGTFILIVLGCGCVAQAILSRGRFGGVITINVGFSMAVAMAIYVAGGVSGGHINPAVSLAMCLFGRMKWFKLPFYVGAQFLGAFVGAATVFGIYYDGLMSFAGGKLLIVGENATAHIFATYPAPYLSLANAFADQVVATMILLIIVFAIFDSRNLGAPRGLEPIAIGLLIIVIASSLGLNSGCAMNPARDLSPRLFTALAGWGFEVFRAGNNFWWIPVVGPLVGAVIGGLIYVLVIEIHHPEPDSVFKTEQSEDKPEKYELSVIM
Description: Si influx and osmotic water transport in oocytes. The data set is classed as cell-based. Particulars: 0.1 mM phloretin; Si influx: B2a hypoosmolar medium, 2 mM H4SiO4, 30 min; water transport: ~10 mM sucrose, 20 s.

Substrate in data set [1]: O[Si](O)(O)O
The experiment in a line: cells, lysate or membranes. Particulars: B1 medium, 4-parameter logistic fit.

On to `[OH][Ge]([OH])([OH])[OH]` [H4GeO4], for which the “68Ge influx into oocytes, liquid scintillation counting” value on lsi1 was “significantly different relative to background, between channels (for a given substrate)”.

Regarding `O=C(CCc1ccc(O)cc1)c1c(O)cc(O)cc1O` [phloretin], on AQP9, the “effect on Si influx and water transport at 0.1 mM” value is listed as “Si transport by AQP9 is seen to be stimulated by the water transport inhibitor phloretin”.

B1: AQP7 (Homo sapiens) (protein)
chain: MVQASGHRRSTRGSKMVSWSVIAKIQEILQRKMVREFLAEFMSTYVMMVFGLGSVAHMVLNKKYGSYLGVNLGFGFGVTMGVHVAGRISGAHMNAAVTFANCALGRVPWRKFPVYVLGQFLGSFLAAATIYSLFYTAILHFSGGQLMVTGPVATAGIFATYLPDHMTLWRGFLNEAWLTGMLQLCLFAITDQENNPALPGTEALVIGILVVIIGVSLGMNTGYAINPSRDLPPRIFTFIAGWGKQVFSNGENWWWVPVVAPLLGAYLGGIIYLVFIGSTIPREPLKLEDSVAYEDHGITVLPKMGSHEPTISPLTPVSVSPANRSSVHPAPPLHESMALEHF
Take B1: the K0.5 in data set [1] (pH 7.4, 0-2 mM H4SiO4 (value above tested range), 90 min) came to 2300 µM.

B2: AQP9 (Homo sapiens) (protein)
chain: T2 sequence (O43315 1-295)
On to B2, for which the K0.5 in data set [1] (pH 7.4, 0-2 mM H4SiO4, 30 min) turned out to be 117 µM.

B3: AQP10 (Homo sapiens) (protein)
chain: MVFTQAPAEIMGHLRIRSLLARQCLAEFLGVFVLMLLTQGAVAQAVTSGETKGNFFTMFLAGSLAVTIAIYVGGNVSGAHLNPAFSLAMCIVGRLPWVKLPIYILVQLLSAFCASGATYVLYHDALQNYTGGNLTVTGPKETASIFATYPAPYLSLNNGFLDQVLGTGMLIVGLLAILDRRNKGVPAGLEPVVVGMLILALGLSMGANCGIPLNPARDLGPRLFTYVAGWGPEVFSAGNGWWWVPVVAPLVGATVGTATYQLLVALHHPEGPEPAQDLVSAQHKASELETPASAQMLECKL
With B3, the K0.5 in data set [1] (pH 7.4, 0-2 mM H4SiO4, 60 min) came to 470 µM.
